Target: Thrombin (UniProt P00734;P00734 328-363;364-622)
Assay: ion current rectification nanopipette aptasensor

B1: N protein aptamer (ssDNA)
DNA: GCTGGATGTCGCTTACGACAATATTCCTTAGGGGCACCGCTACATTGACACATCCAGC
modifications: 5'-NH2
binding result: no binding

Source: PMC9700395
